Like-named read-outs stand apart in the source and are kept apart here.
T1: CD30 on CD30-expressing tumor cell lines (HH, MJ, H9) (UniProt P28908 19-595)
T1 sequence (looked up): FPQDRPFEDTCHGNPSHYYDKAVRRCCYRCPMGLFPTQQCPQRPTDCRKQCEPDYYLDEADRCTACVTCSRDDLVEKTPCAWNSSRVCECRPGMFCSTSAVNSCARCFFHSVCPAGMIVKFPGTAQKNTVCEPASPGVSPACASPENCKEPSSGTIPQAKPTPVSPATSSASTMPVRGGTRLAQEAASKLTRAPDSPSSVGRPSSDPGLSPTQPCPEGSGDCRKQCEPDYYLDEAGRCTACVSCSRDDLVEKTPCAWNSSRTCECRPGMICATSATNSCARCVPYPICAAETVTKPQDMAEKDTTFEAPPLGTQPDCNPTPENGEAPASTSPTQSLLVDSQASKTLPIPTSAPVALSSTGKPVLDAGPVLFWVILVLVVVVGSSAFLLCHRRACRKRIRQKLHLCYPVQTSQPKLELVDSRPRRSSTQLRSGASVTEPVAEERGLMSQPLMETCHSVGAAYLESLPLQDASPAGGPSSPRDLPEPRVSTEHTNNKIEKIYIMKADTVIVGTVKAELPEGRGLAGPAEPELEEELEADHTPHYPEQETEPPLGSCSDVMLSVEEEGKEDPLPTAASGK


Legend:
Assay in all cases: cell-based or functional assay
[1] = target: T1, CD30 on CD30-expressing tumor cell …
[2] = target: T1, CD30 on CD30-expressing tumor cell …; remark: listed apart in the source
[3] = target: T1, CD30 on CD30-expressing tumor cell …; remark: listed apart in the source
[4] = target: T1, CD30 on CD30-expressing tumor cell …; remark: listed apart in the source

Binder | % H9 cell lysis E:T = 2:1 (LDH assay, CAR T cells) [1] [%] | % MJ cell lysis E:T = 1:1 (LDH assay, CAR T cells) [1] [%] | % MJ cell lysis E:T = 0.5:1 (LDH assay, CAR T cells) [4] [%] | also measured
AS48463VH4bbz CAR (other) EVQLLESGGGLVQPGGSLRLSCAASGFTFANSDMGWYRQAPGKGCELVSIISSHGGTTYYVDSVKGRFTISRDNSKNTLYLQMNSLRAEDTAVYYCVADPRSNCRGGYCCGYWGQGTLVTVSSTTTPAPRPPTPAPTIASQPLSLRPEACRPAAGGAVHTRGLDFACDIYIWAPLAGTCGVLLLSLVITLYCKRGRKKLLYIFKQPFMRPVQTTQEEDGCSCRFPEEEEGGCELRVKFSRSADAPAYKQGQNQLYNELNLGRREEYDVLDKRRGRDPEMGGKPRRKNPQEGLYNELQKDKMAEAYSEIGMKGERRRGKGHDGLYQGLSTATKDTYDALHMQALPPR | 64 | 67 |  | 
AS48542VH5bbz CAR (other) EVQLVESGGGLVQPGGSLRLSCATSAFTFDGPDMAWYRQAPGKGCELVSIISADGRTYYADSVKGRFTISRDNSKNTVYLQMNSLRAEDTAVYYCALDPRKNCRGGYCCANWGQGTLVTVSSTTTPAPRPPTPAPTIASQPLSLRPEACRPAAGGAVHTRGLDFACDIYIWAPLAGTCGVLLLSLVITLYCKRGRKKLLYIFKQPFMRPVQTTQEEDGCSCRFPEEEEGGCELRVKFSRSADAPAYKQGQNQLYNELNLGRREEYDVLDKRRGRDPEMGGKPRRKNPQEGLYNELQKDKMAEAYSEIGMKGERRRGKGHDGLYQGLSTATKDTYDALHMQALPPR | 62 | 65 |  | % H9 cell lysis E:T = 2:1 (LDH assay, CAR T cells) [2]: 62%; % MJ cell lysis E:T = 1:1 (LDH assay, CAR T cells) [2]: 65%; % H9 cell lysis E:T = 0.2:1 (FACS method, CAR T cells) [3]: 38%; % MJ cell lysis E:T = 0.2:1 (FACS method, CAR T cells) [3]: 58.6%
AS53445bbz CAR (other) QVQLVESGGGSVQAGGSLRLSCTASGYIFCMGWFRQAPGKAREGIATIYTGGDSTYYDDSVKGRFTISRDNAKNTVYLQMNSLKPEDTAMYYCAAGGQECYLTNWVSYWGQGTQVTVSSTTTPAPRPPTPAPTIASQPLSLRPEACRPAAGGAVHTRGLDFACDIYIWAPLAGTCGVLLLSLVITLYCKRGRKKLLYIFKQPFMRPVQTTQEEDGCSCRFPEEEEGGCELRVKFSRSADAPAYKQGQNQLYNELNLGRREEYDVLDKRRGRDPEMGGKPRRKNPQEGLYNELQKDKMAEAYSEIGMKGERRRGKGHDGLYQGLSTATKDTYDALHMQALPPR |  |  | 24.6 | 
AS48463bbz CAR (other) QVHLMESGGGSVQAGETLRLSCTASGFTFANSDMGWYRQAPGNACELVSIISSHGGTTYYVDSVKGRFTISRHNAENTVYLRMTSLKPEDTALYYCVADPRSNCRGGYCCGYWGPGTQVTVSSTTTPAPRPPTPAPTIASQPLSLRPEACRPAAGGAVHTRGLDFACDIYIWAPLAGTCGVLLLSLVITLYCKRGRKKLLYIFKQPFMRPVQTTQEEDGCSCRFPEEEEGGCELRVKFSRSADAPAYKQGQNQLYNELNLGRREEYDVLDKRRGRDPEMGGKPRRKNPQEGLYNELQKDKMAEAYSEIGMKGERRRGKGHDGLYQGLSTATKDTYDALHMQALPPR |  |  | 60.8 | 
AS47863bbz CAR (other) QVQLEESGGGSVQAGETLRLSCTASGSTFGDSDMGWYRQAPGNACELVSIISSDGRTYYVDSVKGRFTISQDNAVSTVYLQMNSLKPEDTGVYYCAADLRQYCRDGRCCGYWGQGTQVTVSSTTTPAPRPPTPAPTIASQPLSLRPEACRPAAGGAVHTRGLDFACDIYIWAPLAGTCGVLLLSLVITLYCKRGRKKLLYIFKQPFMRPVQTTQEEDGCSCRFPEEEEGGCELRVKFSRSADAPAYKQGQNQLYNELNLGRREEYDVLDKRRGRDPEMGGKPRRKNPQEGLYNELQKDKMAEAYSEIGMKGERRRGKGHDGLYQGLSTATKDTYDALHMQALPPR |  |  | 65 | 
AS48433bbz CAR (other) QIQLVESGGGSVQAGETLRLSCTASGSTFGDSDMGWYRQAPGNACELVSIISSDGRTYYVDSVKGRFTISQDNAVSTVYLQMNSLNPEDTGVYYCAADLRLNCRDGRCCGYWGQGTQVTVSSTTTPAPRPPTPAPTIASQPLSLRPEACRPAAGGAVHTRGLDFACDIYIWAPLAGTCGVLLLSLVITLYCKRGRKKLLYIFKQPFMRPVQTTQEEDGCSCRFPEEEEGGCELRVKFSRSADAPAYKQGQNQLYNELNLGRREEYDVLDKRRGRDPEMGGKPRRKNPQEGLYNELQKDKMAEAYSEIGMKGERRRGKGHDGLYQGLSTATKDTYDALHMQALPPR |  |  | 50.5 | 
AS47863VH4bbz CAR (other) EVQLVESGGGLVQPGGSLRLSCAASGSTFGDSDMGWYRQAPGKGCELVSIISSDGRTYYVDSVKGRFTISQDNSKNTLYLQMNSLRAEDTAVYYCAADLRQYCRDGRCCGYWGQGTLVTVSSTTTPAPRPPTPAPTIASQPLSLRPEACRPAAGGAVHTRGLDFACDIYIWAPLAGTCGVLLLSLVITLYCKRGRKKLLYIFKQPFMRPVQTTQEEDGCSCRFPEEEEGGCELRVKFSRSADAPAYKQGQNQLYNELNLGRREEYDVLDKRRGRDPEMGGKPRRKNPQEGLYNELQKDKMAEAYSEIGMKGERRRGKGHDGLYQGLSTATKDTYDALHMQALPPR | 63 | 57 |  | 

Now from value to binder, other results behind:

% H9 cell lysis E:T = 2:1 (LDH assay, CAR T cells) [1] [%] | % MJ cell lysis E:T = 1:1 (LDH assay, CAR T cells) [1] [%] | % MJ cell lysis E:T = 0.5:1 (LDH assay, CAR T cells) [4] [%] | Binder | also measured
 |  | 42 | AS57659bbz CAR (other) DIQMTQSPSSLSASVGDRVTITCRASQSVSSAVAWYQQKPGKAPKLLIYSASSLYSGVPSRFSGSRSGTDFTLTISSLQPEDFATYYCQQPYYLITFGQGTKVEIKGGGGSGGGGSGGGGSEVQLVESGGGLVQPGGSLRLSCAASGFNIYSYYIHWVRQAPGKGLEWVASIYSSYSSTYYADSVKGRFTISADTSKNTAYLQMNSLRAEDTAVYYCARSWFSYPGLDYWGQGTLVTVSSTTTPAPRPPTPAPTIASQPLSLRPEACRPAAGGAVHTRGLDFACDIYIWAPLAGTCGVLLLSLVITLYCKRGRKKLLYIFKQPFMRPVQTTQEEDGCSCRFPEEEEGGCELRVKFSRSADAPAYKQGQNQLYNELNLGRREEYDVLDKRRGRDPEMGGKPRRKNPQEGLYNELQKDKMAEAYSEIGMKGERRRGKGHDGLYQGLSTATKDTYDALHMQALPPR | 
 |  | 45.1 | AS48481bbz CAR (other) EVQLVASGGGSVQAGETLRLSCTASGFTFADSAMGWYRKGPGNVCDLVAIIRTDGTTYYGDSAKGRFTISRDNAKSTLYLQMNSLKPEDTAVYFCAADRETSFIGGSWCVAKYWDQGTQVTVSSTTTPAPRPPTPAPTIASQPLSLRPEACRPAAGGAVHTRGLDFACDIYIWAPLAGTCGVLLLSLVITLYCKRGRKKLLYIFKQPFMRPVQTTQEEDGCSCRFPEEEEGGCELRVKFSRSADAPAYKQGQNQLYNELNLGRREEYDVLDKRRGRDPEMGGKPRRKNPQEGLYNELQKDKMAEAYSEIGMKGERRRGKGHDGLYQGLSTATKDTYDALHMQALPPR | 
 |  | 43.9 | AS57911bbz CAR (other) DIQMTQSPSSLSASVGDRVTITCRASQSVSSAVAWYQQKPGKAPKLLIYSASSLYSGVPSRFSGSRSGTDFTLTISSLQPEDFATYYCQQSHALITFGQGTKVEIKGGGGSGGGGSGGGGSEVQLVESGGGLVQPGGSLRLSCAASGFNISSSYIHWVRQAPGKGLEWVAYISSYYSYTYYADSVKGRFTISADTSKNTAYLQMNSLRAEDTAVYYCARGYPYGMDYWGQGTLVTVSSTTTPAPRPPTPAPTIASQPLSLRPEACRPAAGGAVHTRGLDFACDIYIWAPLAGTCGVLLLSLVITLYCKRGRKKLLYIFKQPFMRPVQTTQEEDGCSCRFPEEEEGGCELRVKFSRSADAPAYKQGQNQLYNELNLGRREEYDVLDKRRGRDPEMGGKPRRKNPQEGLYNELQKDKMAEAYSEIGMKGERRRGKGHDGLYQGLSTATKDTYDALHMQALPPR | 
45 | 41 | 29.9 | 5F11bbz CAR (other) DIQMTQSPTSLSASVGDRVTITCRASQGISSWLTWYQQKPEKAPKSLIYAASSLQSGVPSRFSGSGSGTDFTLTISSLQPEDFATYYCQQYDSYPITFGQGTRLEIKGSTSGSGKPGSGEGSTKGQVQLQQWGAGLLKPSETLSLTCAVYGGSFSAYYWSWIRQPPGKGLEWIGDINHGGGTNYNPSLKSRVTISVDTSKNQFSLKLNSVTAADTAVYYCASLTAYWGQGSLVTVSSTTTPAPRPPTPAPTIASQPLSLRPEACRPAAGGAVHTRGLDFACDIYIWAPLAGTCGVLLLSLVITLYCKRGRKKLLYIFKQPFMRPVQTTQEEDGCSCRFPEEEEGGCELRVKFSRSADAPAYKQGQNQLYNELNLGRREEYDVLDKRRGRDPEMGGKPRRKNPQEGLYNELQKDKMAEAYSEIGMKGERRRGKGHDGLYQGLSTATKDTYDALHMQALPPR | % H9 cell lysis E:T = 2:1 (LDH assay, CAR T cells) [2]: 45%; % MJ cell lysis E:T = 1:1 (LDH assay, CAR T cells) [2]: 41%; % H9 cell lysis E:T = 0.2:1 (FACS method, CAR T cells) [3]: 16%; % MJ cell lysis E:T = 0.2:1 (FACS method, CAR T cells) [3]: 2.3%

— patent publication US20220144960A1 (NANJING LEGEND BIOTECH, published 2022)
